Measurements published in patent US20260224624A1.

Target: recombinant human TGFβ1 (rhTGFβ) (human) (UniProt P01137)
Assay: cell-based or functional assay

UniProt P01137, sequence (P01137 279-390 limits assumed): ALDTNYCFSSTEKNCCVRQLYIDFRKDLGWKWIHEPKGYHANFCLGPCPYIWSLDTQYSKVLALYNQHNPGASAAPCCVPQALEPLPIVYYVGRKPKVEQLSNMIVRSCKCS

## TGFβ-switch receptor (SwR): extracellular domains of TGFβRI and TGFβRII fused to the transmembrane and intracellular domains of the IL-2/IL-15 receptor β and γ chains
  expansion of JK59 SwR-STEAP1 CAR T cells cultured 21 days with rhTGFβ: 15 fold
  expansion of JK69 SwR-STEAP1 CAR T cells cultured 21 days with rhTGFβ: 33 fold
  phosphorylation level of STAT5 (pY694) in CD3+ JK59 CAR T cells treated with rhTGFβ at 10 ng/ml for 15 min, flow cytometry: 60%
